Results published in patent US20210395372A1.
pKd: −log10 of the molar value.

Assays:
[1] = biological target: human Met-Fc chimera (human) (UniProt P08581); assay: ELISA
[2] = biological target: human Met receptor on cells (human) (UniProt P08581); assay: cell-based or functional assay
Chain of human Met receptor on cells (human) (P08581 25-1390): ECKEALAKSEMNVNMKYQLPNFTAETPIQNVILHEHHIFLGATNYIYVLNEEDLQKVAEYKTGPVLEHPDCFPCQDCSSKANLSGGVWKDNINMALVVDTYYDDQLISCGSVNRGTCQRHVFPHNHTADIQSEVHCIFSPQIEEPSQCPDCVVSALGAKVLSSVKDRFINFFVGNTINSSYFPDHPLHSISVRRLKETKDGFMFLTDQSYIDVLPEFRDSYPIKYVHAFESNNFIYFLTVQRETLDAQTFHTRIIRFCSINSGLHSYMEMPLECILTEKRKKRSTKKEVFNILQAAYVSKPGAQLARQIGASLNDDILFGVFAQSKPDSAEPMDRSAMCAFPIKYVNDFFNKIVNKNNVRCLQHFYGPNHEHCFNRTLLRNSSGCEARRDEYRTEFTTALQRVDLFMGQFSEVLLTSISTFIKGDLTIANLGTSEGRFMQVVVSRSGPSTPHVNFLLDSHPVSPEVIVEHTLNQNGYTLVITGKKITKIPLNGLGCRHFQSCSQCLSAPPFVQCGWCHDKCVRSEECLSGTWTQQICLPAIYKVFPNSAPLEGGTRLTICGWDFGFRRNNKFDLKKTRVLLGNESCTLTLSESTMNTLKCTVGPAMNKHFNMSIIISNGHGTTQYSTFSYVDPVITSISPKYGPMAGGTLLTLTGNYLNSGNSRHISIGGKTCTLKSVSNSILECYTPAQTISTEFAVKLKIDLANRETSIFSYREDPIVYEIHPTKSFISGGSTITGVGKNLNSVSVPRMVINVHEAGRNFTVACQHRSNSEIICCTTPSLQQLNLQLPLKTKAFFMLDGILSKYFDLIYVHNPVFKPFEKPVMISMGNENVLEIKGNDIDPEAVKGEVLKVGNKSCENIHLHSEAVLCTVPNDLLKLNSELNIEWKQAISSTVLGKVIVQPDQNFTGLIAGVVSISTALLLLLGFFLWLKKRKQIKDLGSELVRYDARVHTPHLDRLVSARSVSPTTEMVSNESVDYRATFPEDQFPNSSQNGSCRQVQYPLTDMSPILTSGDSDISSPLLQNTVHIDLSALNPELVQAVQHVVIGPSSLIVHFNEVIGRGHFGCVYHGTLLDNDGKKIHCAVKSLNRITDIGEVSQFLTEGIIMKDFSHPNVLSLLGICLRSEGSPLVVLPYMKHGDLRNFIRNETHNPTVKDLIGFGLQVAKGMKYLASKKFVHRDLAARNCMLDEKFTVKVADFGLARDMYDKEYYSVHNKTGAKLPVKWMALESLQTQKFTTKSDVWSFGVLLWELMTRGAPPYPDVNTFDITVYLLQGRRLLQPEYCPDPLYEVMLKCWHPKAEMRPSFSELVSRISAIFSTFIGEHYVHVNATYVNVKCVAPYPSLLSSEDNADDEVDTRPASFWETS

Chain of human Met-Fc chimera (human) (P08581 25-932, change not shown): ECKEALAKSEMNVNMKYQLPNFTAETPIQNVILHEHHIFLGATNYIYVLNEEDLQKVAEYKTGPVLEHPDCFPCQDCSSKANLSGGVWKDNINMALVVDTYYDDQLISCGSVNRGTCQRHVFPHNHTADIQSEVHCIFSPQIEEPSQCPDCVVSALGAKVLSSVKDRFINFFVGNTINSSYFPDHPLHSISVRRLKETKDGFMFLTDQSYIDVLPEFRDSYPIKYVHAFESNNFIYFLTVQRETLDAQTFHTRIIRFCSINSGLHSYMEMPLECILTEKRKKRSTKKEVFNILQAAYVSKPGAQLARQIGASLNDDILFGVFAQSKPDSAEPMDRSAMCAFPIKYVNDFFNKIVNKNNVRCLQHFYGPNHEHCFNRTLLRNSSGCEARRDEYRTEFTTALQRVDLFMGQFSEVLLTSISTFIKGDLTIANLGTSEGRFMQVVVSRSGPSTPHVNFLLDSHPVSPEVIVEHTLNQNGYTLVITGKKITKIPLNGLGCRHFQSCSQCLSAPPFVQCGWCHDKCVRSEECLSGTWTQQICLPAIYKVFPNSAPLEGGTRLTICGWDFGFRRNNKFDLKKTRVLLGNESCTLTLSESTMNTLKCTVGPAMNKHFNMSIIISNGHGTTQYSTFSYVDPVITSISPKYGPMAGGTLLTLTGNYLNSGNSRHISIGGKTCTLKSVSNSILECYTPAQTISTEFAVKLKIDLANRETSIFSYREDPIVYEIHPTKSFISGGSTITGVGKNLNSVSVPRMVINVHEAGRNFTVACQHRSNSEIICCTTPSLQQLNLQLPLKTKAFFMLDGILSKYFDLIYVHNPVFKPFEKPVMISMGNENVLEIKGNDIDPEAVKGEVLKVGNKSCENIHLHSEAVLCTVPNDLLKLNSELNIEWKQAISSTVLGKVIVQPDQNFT

pKd [1] | percentage of GTL-16 cells in S phase (EdU), 1 uM antibody [2] | reduction of proliferating GTL-16 cells versus control (EdU), 1 uM antibody [2] | Substance
9.50 | – | – | chOA-DN30
– | 15% | 52% | chOA-DN30 (antibody)
